The values below come from paper PMC8080410 (Bioactive Materials, 2021).

B1: E-OVA_(323-336) (peptide)
peptide: EWEAEAEAEWEGGGQAVHAAHAEINEAGR

The series “TEM + DLS” concerns the molecule itself. Kind of series: TEM + DLS.
For the series “E-OVA_(323-336)”, the target named is B1. Kind of series: TEM + rheology + circular dichroism. On the technique in general: Circular dichroism is widely used to follow secondary structure.

Consider KWKAKAKAKWKGGGSIINFEKL [K-OVA_(257-264)], for which the binding result in “TEM + DLS” and in the series with E-OVA_(323-336) was “binds” throughout.

For the molecule B1, the binding result in the series “TEM + DLS” is reported as “binds”.
